Measured values from patent publication US20100184652A1.

Biological target: pY213 peptide (14-residue Abi1 peptide containing phosphorylated tyrosine 213) (human)
Assay: SPR (Biacore 3000), biotinylated pY213 on streptavidin chip, GST-Abl SH2 injected, 1:1 model

GST-Abl SH2 domain fusion protein (from UniProt P00519 146-236)
Kd: 33.2 nM
